Patent US20240010730A1 (SHANGHAI HUAOTA BIOPHARMACEUTICAL, published 2024)

T1: human TIGIT on CHOK1-huTIGIT-2A3 cells (human, UniProt Q495A1 22-244)
T1 construct: whole, on cells; also called cells expressing the human TIGIT
T1 sequence (looked up): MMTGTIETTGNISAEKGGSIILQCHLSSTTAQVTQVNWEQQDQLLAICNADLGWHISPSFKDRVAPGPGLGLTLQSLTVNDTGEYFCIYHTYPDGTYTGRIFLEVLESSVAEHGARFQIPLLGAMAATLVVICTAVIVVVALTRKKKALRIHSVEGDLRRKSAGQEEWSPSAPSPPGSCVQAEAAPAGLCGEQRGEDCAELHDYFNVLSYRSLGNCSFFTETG

T2: Human TIGIT (SPR analyte, Example 7) (human, UniProt Q495A1 22-141, limits assumed)
T2 sequence (looked up): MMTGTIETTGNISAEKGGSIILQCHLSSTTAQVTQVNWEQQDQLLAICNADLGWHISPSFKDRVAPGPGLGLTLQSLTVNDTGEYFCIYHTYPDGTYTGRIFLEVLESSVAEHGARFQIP


Legend:
[1] = biological target: T1, human TIGIT on CHOK1-huTIGIT-2A3 cells; assay: flow cytometry competition with huCD155-moFc on CHOK1-huTIGIT-2A3 cells
Experimental: After reaction, the 96-well U-shaped plate was resuspended with 1% BSA/PBS, centrifuged (300 g×3 min) to discard the supernatant, and washed once in such way; and Alexa488-goat anti-mouse-Fc (Jackson ImmunoResearch, #115-545-071) diluted at 1:300 was added to react for 15 min in the dark at room temperature. After reaction, the 96-well U-shaped plate was resuspended with 1% BSA/PBS, centrifuged (300 g×3 min) to discard the supernatant, washed three times in such a way, and finally resuspended with 100 μL of 1% BSA/PBS for each wall; and the fluorescence intensity of an FITC channel was detected with a flow cytometer (BD, #CantoII).

[2] = biological target: T1, human TIGIT on CHOK1-huTIGIT-2A3 cells; assay: flow cytometry on CHOK1-huTIGIT-2A3 cells
Experimental: All chimeric antibodies and humanized antibodies were diluted to 20 μg/ml with 1% BSA in PBS solution (1% BSA/PBS), were added to a 96-well U-shaped plate at 20 μL per well; and a negative control (with 1% BSA/PBS added only) was set up at the same time. The suspension of cells (CHOK1-huTIGIT-2A3, Huabo Biopharm) expressing human TIGIT during the logarithmic growth phase were centrifuged (1000 rpm×5 min) to discard the culture medium; and the cells were resuspended with 1% BSA/PBS until the density of viable cells was 1×10⁶/mL, and were added, at 20 μL (2×10⁴ cells) per well, to the 96-well U-shaped plate with the anti-TIGIT antibody to react for 30 min at room temperature. After reaction, the 96-well U-shaped plate was resuspended with 1% BSA/PBS, centrifuged (300 g×3 min) to discard the supernatant, and washed once in such a way; and PE-goat anti-human-Fc (Jackson ImmunoResearch, #109-115-098) diluted at 1:200 was added to react for 15 min in the dark at room temperature. After reaction, the 96-well U-shaped plate was resuspended with 1% BSA/PBS, centrifuged (300 g×3 min) to discard the supernatant, washed three times in such a way, and finally resuspended with 100 μL of 1% BSA/PBS for each wall; and the fluorescence intensity of a PE channel was detected with a flow cytometer (BD, #CantoII).

[3] = biological target: Human PD-L1 (SPR analyte, Example 7) (human, UniProt Q9NZQ7 19-238, limits assumed); assay: SPR (Biacore 8K), antibody captured by anti-human chip, antigen analyte, 1:1 model
Chain of Human PD-L1 (SPR analyte, Example 7) (Q9NZQ7 19-238 limits assumed): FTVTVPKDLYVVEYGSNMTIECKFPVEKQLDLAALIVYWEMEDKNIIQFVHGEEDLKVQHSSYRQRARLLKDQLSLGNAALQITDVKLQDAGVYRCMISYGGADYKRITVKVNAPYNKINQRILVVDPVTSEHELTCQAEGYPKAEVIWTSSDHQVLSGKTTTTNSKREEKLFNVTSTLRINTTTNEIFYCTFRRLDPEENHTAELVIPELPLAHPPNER
Experimental: (§1) The Anti-Human Capture-CMS chip (GE, #BR-1005-30) was prepared according to the method for conjugating the Human Antibody Capture Kit (GE, #BR-1008-39) to the Amino Conjugation Kit (GE, BR-1000-50).

[4] = biological target: T2, Human TIGIT (SPR analyte, Example 7); assay: as above
Experimental: as §1

[5] = biological target: TIGIT on Jurkat-TIGIT-22G8 cells; assay: cell-based or functional assay

Binder | IC50 [1] [µg/mL] | EC50 [2] [µg/mL] | Kd [3] [nM] | koff [3] [s⁻¹] | kon [3] [M⁻¹ s⁻¹] | Kd [4] [nM] | koff [4] [s⁻¹] | kon [4] [M⁻¹ s⁻¹] | EC50 (nM), IL2 secretion of Jurkat-TIGIT-22G8 cells with PHA and CD155 [5] [nM]
900424 (antibody, human IgG1, kappa, L234A L235A, V domains shown, Chimeric form of B3/29F6; also called ADCC KO type human-mouse chimeric antibody (number 900424)) VH: DVQLQESGPGLVKPSQSLSLTCTVTGYSITSDYAWIWIRQFPGNKVEWMGYITSSGSTSYNPSLKSRISFTRDTSKNQFFLQLTSVTTEDTATYYCARLDFGNYGGAMDYWGQGTSVTVSS VL: DIVMTQSHKFMSTSIGDRVSITCKASQHVSTAVAWYQQKPGQSPKLLIYSASYRYTGVPDRFTGSRSGTDFTFTISSVQAEDLAVYYCQQHYITPYTFGGGTKLEIKR | 0.062 | 0.053 |  |  |  |  |  |  | 
900686 (bispecific antibody, human IgG1, kappa, also called TIGIT-IgG-PD-L1-scFv) heavy: not shown light: DIQMTQSPSSLSASVGDRVTITCRASQHVSTAVNWYQQKPGKAPKLLIYSASYLYSGVPSRFSGSRSGTDFTLTISSLQPEDFATYYCQQHYITPYTFGQGTKLEIKRTVAAPSVFIFPPSDEQLKSGTASVVCLLNNFYPREAKVQWKVDNALQSGNSQESVTEQDSKDSTYSLSSTLTLSKADYEKHKVYACEVTHQGLSSPVTKSFNRGEC |  |  | 0.893 | 0.000419 | 469000 | 0.0476 | 0.0002 | 4.19e+06 | 12.9
900681 (bispecific antibody, human IgG1, kappa, also called TIGIT-IgG-PD-L1-scFv) heavy: not shown light: DIQMTQSPSSLSASVGDRVTITCRASQHVSTAVNWYQQKPGKAPKLLIYSASYLYSGVPSRFSGSRSGTDFTLTISSLQPEDFATYYCQQHYITPYTFGQGTKLEIKRTVAAPSVFIFPPSDEQLKSGTASVVCLLNNFYPREAKVQWKVDNALQSGNSQESVTEQDSKDSTYSLSSTLTLSKADYEKHKVYACEVTHQGLSSPVTKSFNRGEC |  |  | 1.47 | 0.000427 | 290000 | 0.0693 | 0.000245 | 3.53e+06 | 8.96
900683 (bispecific antibody, human IgG1, kappa, also called TIGIT-IgG-PD-L1-scFv) heavy: not shown light: DIQMTQSPSSLSASVGDRVTITCRASQHVSTAVNWYQQKPGKAPKLLIYSASYLYSGVPSRFSGSRSGTDFTLTISSLQPEDFATYYCQQHYITPYTFGQGTKLEIKRTVAAPSVFIFPPSDEQLKSGTASVVCLLNNFYPREAKVQWKVDNALQSGNSQESVTEQDSKDSTYSLSSTLTLSKADYEKHKVYACEVTHQGLSSPVTKSFNRGEC |  |  | 1.05 | 0.000492 | 469000 | 0.0478 | 0.000196 | 4.1e+06 | 8.64
900684 (bispecific antibody, human IgG1, kappa, also called TIGIT-IgG-PD-L1-scFv) heavy: not shown light: DIQMTQSPSSLSASVGDRVTITCRASQHVSTAVNWYQQKPGKAPKLLIYSASYLYSGVPSRFSGSRSGTDFTLTISSLQPEDFATYYCQQHYITPYTFGQGTKLEIKRTVAAPSVFIFPPSDEQLKSGTASVVCLLNNFYPREAKVQWKVDNALQSGNSQESVTEQDSKDSTYSLSSTLTLSKADYEKHKVYACEVTHQGLSSPVTKSFNRGEC |  |  | 1.29 | 0.000376 | 291000 | 0.0502 | 0.000184 | 3.67e+06 | 11.1
900687 (bispecific antibody, human IgG1, kappa, also called TIGIT-IgG-PD-L1-scFv) heavy: not shown light: DIQMTQSPSSLSASVGDRVTITCRASQHVSTAVNWYQQKPGKAPKLLIYSASYLYSGVPSRFSGSRSGTDFTLTISSLQPEDFATYYCQQHYITPYTFGQGTKLEIKRTVAAPSVFIFPPSDEQLKSGTASVVCLLNNFYPREAKVQWKVDNALQSGNSQESVTEQDSKDSTYSLSSTLTLSKADYEKHKVYACEVTHQGLSSPVTKSFNRGEC |  |  | 1.37 | 0.00038 | 278000 | 0.0515 | 0.000204 | 3.96e+06 | 11
900685 (bispecific antibody, human IgG1, kappa, also called TIGIT-IgG-PD-L1-scFv) heavy: not shown light: DIQMTQSPSSLSASVGDRVTITCRASQHVSTAVNWYQQKPGKAPKLLIYSASYLYSGVPSRFSGSRSGTDFTLTISSLQPEDFATYYCQQHYITPYTFGQGTKLEIKRTVAAPSVFIFPPSDEQLKSGTASVVCLLNNFYPREAKVQWKVDNALQSGNSQESVTEQDSKDSTYSLSSTLTLSKADYEKHKVYACEVTHQGLSSPVTKSFNRGEC |  |  | 2.76 | 0.000527 | 191000 | 0.0428 | 0.00021 | 4.89e+06 | 12.1
HB0031 (antibody, human IgG1, kappa, V domains shown, Humanized anti-TIGIT IgG1; also called 900464) VH: QVQLQESGPGLVKPSETLSLTCTVSGYSITSDYAWIWIRQPPGKGLEWIGYITSSGSTYYNPSLKSRVTFSVDTSKNQFSLKLSSVTAADTATYYCARLDFGNYGGAMDYWGQGTLVTVSS VL: DIQMTQSPSSLSASVGDRVTITCKASQHVSTALAWYQQKPGKAPKLLIYSASYLQSGVPSRFSGSRSGTDFTLTISSLQPEDFATYYCQQHYITPYTFGQGTKLEIKR | 0.0665 | 0.0581 |  |  |  |  |  |  | 
HB0032 (antibody, human IgG1, kappa, V domains shown, Humanized anti-TIGIT IgG1; also called 900466) VH: QVQLQESGPGLVKPSETLSLTCTVSGYSITSDYAWIWIRQPPGKKLEWIGYITSSGSTYYNPSLKSRVTFSVDTSKNQFSLKLSSVTAADTATYYCARLDFGNYGGAMDYWGQGTLVTVSS VL: DIQMTQSPSSLSASVGDRVTITCKASQHVSTAVNWYQQKPGKAPKLLIYSASYRQSGVPSRFSGSGSGTDFTLTISSLQPEDFATYYCQQHYITPYTFGQGTKLEIKR | 0.0919 | 0.0785 |  |  |  |  |  |  | 
HB0033 (antibody, human IgG1, kappa, V domains shown, Humanized anti-TIGIT IgG1; also called 900476) VH: QVQLQESGPGLVKPSETLSLTCTVSGYSITSDYAWIWIRQPPGNKLEWIGYITSSGSTYYNPSLKSRVTFSVDTSKNQFSLKLSSVTAADTATYYCARLDFGNYGGAMDYWGQGTLVTVSS VL: DIQMTQSPSSLSASVGDRVTITCKASQHVSTALAWYQQKPGKAPKLLIYSASYLQSGVPSRFSGSRSGTDFTLTISSLQPEDFATYYCQQHYITPYTFGQGTKLEIKR | 0.056 | 0.0514 |  |  |  |  |  |  | 
900428 (antibody, human IgG1, kappa, L234A L235A, V domains shown, also called anti-TIGIT chimeric antibody 900428) VH: DVQLQESGPGLVKPSQSLSLTCTVTGYSITSDYAWNWIRQFPGNRLEWMGYISYSGAPRYNPSLKSRISITRDTSKNQFFLQLSFVTTEDTATYYCASLGTDYYAMDYWGQGTSVIVSS VL: DIVMTQSHKFMFTSVGDRVSITCKASQHVSNAVAWYQQKPGQSPKLLIHSASYRYTGVPDRFTGRGSGTDFTFTINSVQAEDLAVYYCQQYYSLPWTFGGGTKLEIKR | 0.069 | 0.075 |  |  |  |  |  |  | 
900423 (antibody, human IgG1, kappa, L234A L235A, V domains shown, also called anti-TIGIT chimeric antibody 900423) VH: DVQLQESGPGLVKPSQSLSLTCTVTGYSITSDYAWNWIRQFPGNRLEWMGYISYSGAPRYNPSLKSRISITRDTSKNQFFLQLSFVTTEDTATYYCASLGTDYYAMDYWGQGTSVIVSS VL: DIVMTQSHKFMFTSVGDRVSITCKASQHVSNAVAWYQQKPGQSPKLLIHSASYRYTGVPDRFIGRGSGTDFTFTISSVQAEDLAVYYCQQYYSLPWTFGGGTKLEIKR | 0.065 | 0.06 |  |  |  |  |  |  | 
